What was measured:
[1] = target: Proteus mirabilis ScsC (PmScsC), wild type, lacking the predicted secretion signal (Proteus mirabilis); experiment: SEC-MALS; Superdex 200 or Superdex 75 10/300 GL, 25 mM Tris, 150 mM NaCl, pH 7.5; 500 μl of 3 mg ml^-1 injected, 1.0 ml min^-1
[2] = target: Proteus mirabilis ScsC (PmScsC), wild type, lacking the predicted secretion signal (Proteus mirabilis); experiment: crystal structure; extended structure: oxidized PmScsC with 2.5 mM copper(II) chloride, 32% Jeffamine M-600 pH 7, 0.1 M HEPES pH 8, 20 °C; one molecule in the asymmetric unit, trimer generated by crystal symmetry
[3] = target: Proteus mirabilis ScsC (PmScsC), wild type, lacking the predicted secretion signal (Proteus mirabilis); experiment: crystal structure; transitional structure: oxidized PmScsC, 2.85 M sodium malonate pH 5.8 with 0.1 M copper(II) chloride, 20 °C; 6 molecules (two trimers) in the asymmetric unit
[4] = target: Proteus mirabilis ScsC (PmScsC), wild type, lacking the predicted secretion signal (Proteus mirabilis); experiment: cross-linking; 150 μM purified PmScsC in 50 mM HEPES pH 8.5 with 3 mM DTSSP, 30 s–30 min, 23 °C; non-reducing SDS-PAGE, Coomassie; 50 mM DTT as control cleaves the cross-links
[5] = target: Proteus mirabilis ScsC (PmScsC), wild type, lacking the predicted secretion signal (Proteus mirabilis); experiment: SAXS; reduced PmScsC in 25 mM HEPES pH 7.5, 150 mM NaCl, 1 mM DTT; Australian Synchrotron SAXS-WAXS beamline; also pH 6.0-8.0 and 150-1,500 mM NaCl
[6] = target: Selenomethionine-labelled PmScsC (Proteus mirabilis); experiment: crystal structure; compact structure: selenomethionine-labelled PmScsC, 2.85 M sodium malonate pH 5.8 with 0.1 M cobalt(II) chloride, 20 °C; 24 copies (8 trimers) in the asymmetric unit

Measured: stoichiometry N

Proteus mirabilis ScsC (PmScsC), wild type, lacking the predicted secretion signal (enzyme)
not listed: [6]
3: all other assays above

Selenomethionine-labelled PmScsC (enzyme)
3: [6]
